# Results reported in the DeepSol protein solubility set.
# Assay: soluble on expression in E. coli; label from the status in PepcDB or PDB records
row,Sequence,soluble on expression in E. coli
1,MGSDKIHHHHHHGNSSTGLSSGGSNVSLEVLKHRPLVEKYAKESDILEYVPILLAIIQVESGGTMEDVMQSSESAGFPPNSLSTEASIKQGCIYFASLVNRAKDIGCDQESIIQSYNYGGGYLDYVGKNGKKYSFALAESFSKEKSDGEKVTYSNPIAIKENGGWRYNYGNMFYVMLVKQYLTTTKFDDKTVQGIFDEAFKYEGTAYVFGGSSPATGFDCSGLTQWCYAKVGLQLPRVAQDQYDAMSHIELKDAKPGDLIFFHSTYDAGTYVTHVGIYAGDNRMFHAGDPVGWTNLTETYWQQHIIGAGRYKNRKGDR,not soluble
2,MSNLLGPRDANGIPVPMTVDESIASMKASLLKKIKRSAYVYRVDCGGCNGCEIEIFATLSPLFDAERFGIKVVPSPRHADILLFTGAVTRAMRSPALRAWQSAPDPKICISYGACGNSGGIFHDLYCVWGGTDKIVPVDVYIPGCPPTPAATLYGFAMALGLLEQKIHARGPGELDEQPAEILHGDMVQPLRVKVDREARRLAGYRYGRQIADDYLTQLGQGEEQVARWLEAENDPRLNEIVSHLNHVVEEARIRLEHHHHHH,not soluble
3,MAHHHHHHMTVYPSLFVCHGGGPLPLLRDEGHKMLVDALKSHRKLLENRFGLPKAIVVISAHYETNTPKVGGAERPSLLFDYYGFPEESYKFRYPVPGNAPLAAAIVNALTVGGFHAEMEPERLLDHGVFVPLMIMFPEANIPVVPLSVLRSGDPAEHIRMGKALRPLRSDAVMFIGSGSTMHHFAHFNREGAGRKFGDALTSILCKNEVATLPEDRLKAMERVKTMEGFTEAQPLREHEHLMPLLTLVGAANGNIAEEVASISFGRANVRNYLFTE,not soluble
4,MSANLVTPKWGYIGKMPAKGDFVKDGISPEFANRWHDWQQAVIAVSKEQLGDTWNDYFLTAPVWHFALDVSYMDDATYIGSMIPSVDACGRYFFFTVVRAVKGKAAQYWAQSGWTEDSQTLALSVLDDEFVFDVWHRSMQEKCELVSEVSICNEEMALLYQSPISTVFSFSTEAKQNTLLNHLIESQQRKPCFWWTEGSTHIESCMFVSTGLPSIGQFSAMLDGRWQMWSW,not soluble
5,SKERRAPQPVVARCKLVLVGDVQCGKTAMLQVLAKDCYPETYVPTVFENYTACLETEEQRVELSLWDTSGSPYYDNVRPLCYSDSDAVLLCFDISRPETVDSALKKWRTEILDYCPSTRVLLIGCKTDLRTDLSTLMELSHQKQAPISYEQGCAIAKQLGAEIYLEGSAFTSEKSIHSIFRTASMLCLNKPSPLPQKSPVRSLSKRLLHLPSRSELISSTFKKEKAKSCSIM,soluble
6,MFQDVLVITVAVGRGGDGAVSFRREKFVPKGGPDGGDGGRGGSVYLRARGSVDSLSRLSKRTYKAEDGEHGRGSQQHGRGGEDLVIEVPRGTRVFDADTGELLADLTEEGQTVLVARGGAGGRGNMHFVSPTRQAPRFAEAGEEGEKRRLRLELMLIADVGLVGYPNAGKSSLLAAMTRAHPKIAPYPFTTLSPNLGVVEVSEEERFTLADIPGIIEGASEGKGLGLEFLRHIAGTRVLLYVLDAADDPFKTLKTLRKKVWAYDPGLLGRPSLVALNKVDLLEKEAVKALADALAREGLAVLPVSALTGAGLPALKEALHALVRSTPPPEMPKPVPRKEVQAGVEVVPVAEGVYEVRAPEVERYLARIKGDLMEAAGYLQEVFRRQGVEAALRAKGVRAGDLVRIGGLEFEYIPEV,soluble
7,MNSITCPKCGTECDKLFDSVCRDCFFETFKLIDLPLVLHVKICSSCGAYFHRSRWENIGNLEEVVLKAVENALFIHDEAGDVELYLEPKEITPYIYMVRAEVDAIVRGEPVHAEAATEVRVQRIACDMCSRESGGYFEAIIQIRAAGRFPTEEEKRRCSAIAREAMESMKKKGDRLAFISDYQEQKEGIDLYMGSMNASRQVCRMIISELGGSFAESPTLVGMKDGKNLYRITFAMRLPEFRPGDVIRFRGRIIQIRSSGKKVNGISLEDGSRFLSTPEELKGAEKIANIGDAVLTVLVSIEENAILVLDPETYETVAIKKPMFFNAEAGSEIPVLKTEYGIFALAHTDIPQEKLEHHHHHH,soluble
8,MAKKTSSLLSRRRTRRPGEPPLDLGSIPWLGYALDFGKDAASFLTRMKEKHGDIFTILVGGRYVTVLLDPHSYDAVVWEPRTRLDFHAYAIFLMERIFDVQLPHYSPSDEKARMKLTLLHRELQALTEAMYTNLHAVLLGDATEAGSGWHEMGLLDFSYSFLLRAGYLTLYGIEALPRTHESQAQDRVHSADVFHTFRQLDRLLPKLARGSLSVGDKDHMCSVKSRLWKLLSPARLARRAHRSKWLESYLLHLEEMGVSEEMQARALVLQLWATQGNMGPAAFWLLLFLLKNPEALAAVRGELESILWQAEQPVSQTTTLPQKVLDSTPVLDSVLSESLRLTAAPFITREVVVDLAMPMADGREFNLRRGDRLLLFPFLSPQRDPEIYTDPEVFKYNRFLNPDGSEKKDFYKDGKRLKNYNMPWGAGHNHCLGRSYAVNSIKQFVFLVLVHLDLELINADVEIPEFDLSRYGFGLMQPEHDVPVRYRIRPHHHH,soluble
9,MDLKFKSQETGRSIGFASHLRRHGATLANHLNYTRNEFISTLADCHQNLGIEGRASSPEKQFDEDGDEIEATATKIEWQPLKCPKCHRNSENTRKLLEHLVEDHGRPQDKAWFEQFDTIGTDLKKVFDKAIRIQAENSVVKKKFQNSNDLLVCPTDSPLAPFLLMRHLQVNFQEVSQTLTEGIVLKLQIASTSYTIIFSFHKVDKARRRIKREMARKSLERRLRVLELRCARTWVPDDDVVFKKKRTSEENKALIQALKLPATSSHDDIVLKINEMKTQHDEMVK,not soluble
10,SVGREKELSIHFVPGSCRLVEEEVNIPNRRVLVTGATGLLGRAVHKEFQQNNWHAVGCGFRRARPKFEQVNLLDSNAVHHIIHDFQPHVIVHCAAERRPDVVENQPDAASQLNVDASGNLAKEAAAVGAFLIYISSDYVFDGTNPPYREEDIPAPLNLYGKTKLDGEKAVLENNLGAAVLRIPILYGEVEKLEESAVTVMFDKVQFSNKSANMDHWQQRFPTHVKDVATVCRQLAEKRMLDPSIKGTFHWSGNEQMTKYEMACAIADAFNLPSSHLRPITDSPVLGAQRPRNAQLDCSKLEILGIGQRTPFRIGIKESLWPFLIDKRWRQTVFH,soluble
11,NGGIPHDNLVLIRMKPDENGRFGFNVKGGYDQKMPVIVSRVAPGTPADLCVPRLNEGDQVVLINGRDIAEHTHDQVVLFIKASCERHSGELMLLVRPNAVYDVVEE,soluble
12,MRLDLSAKFRQVLGLAKDHASIGRAIVQNYNEKAFFDIEVAVVRATSHDDCPVDDKTMHEILFLVSNTPGSIPFLAEQISRRLAKTRDCLVAGKTLLLFHRLLRGSSRSIEQQLHIAHTSGHLQIGCSWFMMSLDSRSFVFLQNYVAYLQERVGWIINQAGKLEPVMSGGTKFSRYKEKSMDLVFHILPKCQEFIAQVLKCSPVDAWPIDNLVQAATGNILKESFQVYMTYSDGMTALVSMLFDLSRPARDLACGMLRKASQQIQDLRILYDKCRGFAGMKSLDYPSVQAISMDHIVALEECSSYGGKRGFSLSTNLRDAITCNELKQEQHSASFSSTSPFSLPVETKISMVWVVFDNEDGEESDKQTEKAYER,soluble
13,CGKSEAPPPAQTPEVGIVTLEAQTVTLNTELPGRTNAFRIAEVRPQVNGIILKRLFKEGSDVKAGQQLYQIDPATYEADYQSAQANLASTQEQAQRYKLLVADQAVSKQQYADANAAYLQSKAAVEQARINLRYTKVLSPISGRIGRSAVTEGALVTNGQANAMATVQQLDPIYVDVTQPSTALLRLRRELASGQLERAGDNAAKVSLKLEDGSQYPLEGRLEFSEVSVDEGTGSVTIRAVFPNPNNELLPGMFVHAQLQEGVKQKAILAPQQGVTRDLKGQATALVVNAQNKVELRVIKADRVIGDKWLVTEGLNAGDKIITEGLQFVQPGVEVKTVPAKNVASAQKADAAPAKTDSKG,soluble
14,MPLSQEESTLIERATATINSIPISEDYSVASAALSSDGRIFTGVNVYHFTGGPCAELVVLGTAAAAAAGNLTCIVAIGNENRGILSPCGRCRQVLLDLHPGIKAIVKDSDGQPTAVGIRELLPSGYVWEG,soluble
15,MDTTKTIAALFDFDGVIMDTETQYTVFWDEQGRKYLNEEDFGRRIKGQTLTQIYEKYFSDLPEAQQEITAGLNIYEKSMSYEYIPGVEAFIADLRKHGAKIAVVTSSNEEKMQNVYNAHPEFKGMVDRILTGEMFARSKPAPDCFLLGMEIFGATPENSYVFEDSFHGLQAGMTSGATVIGLATTNTREAITGKAHYIIDDFSEMTFEHLLALHR,not soluble
16,MGSDKIHHHHHHMQCMIDAMRSIVSLISHATVALAGSLAVAGCSLSPQPDHDTAATTPERLEARIHKVHRFDPQAFTQGLELDGDRLLVSTGFYGESGMFSMEVGNAPQQRTPLDPELFGEGITKTGDHIWQLTWRDGIAFKRDATTFQQLGTVSYEGEGWGLCHFDDRVIMSNGSDELIIRDPESFDERSRIRVTNQGNGVSNLNELECVPNDPATGKDTIYANVFLSTDIMRIDATTGAVTGIIDASSIPNNAVADTNNVLNGIAWIPSSDRFYITGKRWPDLYEVTFVSKMSNHGQS,not soluble
17,NTLTSQIEQLQSLAHELLYLGVDGAPIYTDHFRQLNKEVLEQSDALYPQRGATPEEEANICLALLMGYNATIYNQGDKEEKKQVVLNRCWDVLDQLPATLLKCQLLTYCYGEVFE,not soluble
18,MRHALITAGTKGLGKQVTEKLLAKGYSVTVTYHSDITAMKKMKETYKNMEERLQFVQADVTKKEDLHKIVEEAISRFGKIDFLINNAGPYVFERKKLVDYEEDEWNEMIQGNLTAVFHLLKLVVPIMRKQNFGRIINYGFQGADSAPGWIYRSAFAAAKVGLVSLTKTVAYEEAEYGITANMVCPGDIIGEMKEATIQEARQLKERNTPIGRSGTGEDIARTISFLCEEDSDMITGTIIEVTGAVDVIHRHR,not soluble
19,MATTAQKIKEVEDEMAKTQKNKATAKHLGMLKAKLAKLKRELITPTGGGGGGGLGFDVARTGIGTVGFIGFPSVGKSTLMTQLTGTRSEAAAYEFTTLTTVPGVLQYNGAKIQILDLPGIIEGAKDGRGRGKQVITVARTCNLIFIVLDVLKPMSHKRIIEEELEGFGIRLNKEPPNIVFKKKERGGINITNTVPLTHIDLDEIRAVCSEYRVNSADIAFRCDATIDDLIDVLEGNRVYIPALYVLNKIDSISIEELDLIDRIPNAVPICGNRGWNIDELKETMWDYLNLVRVYTRPRGLEPDYSEPVILRTGHSTVEDFCNNIHSSIKSQFKHAYVWGKSVPYPGMRVGLSHVLLDEDVVTIVKK,not soluble
20,MGSDKIHHHHHHMILKTNLFGHTYQFKSITDVLAKANEEKSGDRLAGVAAESAEERVAAKVVLSKMTLGDLRNNPVVPYETDEVTRIIQDQVNDRIHDSIKNWTVEELREWILDHKTTDADIKRVARGLTSEIIAAVTKLMSNLDLIYGAKKIRVIAHANTTIGLPGTFSARLQPNHPTDDPDGILASLMEGLTYGIGDAVIGLNPVDDSTDSVVRLLNKFEEFRSKWDVPTQTCVLAHVKTQMEAMRRGAPTGLVFQSIAGSEKGNTAFGFDGATIEEARQLALQSGAATGPNVMYFETGQGSELSSDAHFGVDQVTMEARCYGFAKKFDPFLVNTVVGFIGPEYLYDSKQVIRAGLEDHFMGKLTGISMGCDVCYTNHMKADQNDVENLSVLLTAAGCNFIMGIPHGDDVMLNYQTTGYHETATLRELFGLKPIKEFDQWMEKMGFSENGKLTSRAGDASIFLK,not soluble
21,MFNVSALAAATPSIASVSSVASPSEQHGLSTSVGVGVNDTTSRTGDGGAASSASSASAAPQQQSQSALHNKLEAKWDTLLPTDTNLQCSTWPDSIPLLAGYSATPTFSFDPCTYGSYDPSAYFASNGIAGSMYTLPDQFPRSENDMLDNSNTSNGNKSDKDGIKLEDEDEILEDEENDEEDDGTGKRKKRKRRVLFTKAQTYELERRFRSQKYLSAPEREALAMQIRLTPTQVKIWFQNHRYKTKKSHTDKPINAALLTTMPNAFSSQSTAASFPTRAMPIPMLVRDSSARSSDISSTSPYTVAFGSANSGYLPTPSAYLPATSGYFSNGPSAASSYMTNTQWWPS,not soluble
